Laboratory results from article PMC6698862.

Key:
[1] = target: human P-cadherin-Fc (recombinant human P-cadherin ECD protein) (Homo sapiens (Human).) (UniProt P22223); assay: ELISA; cadherin-Fc, P-cadherin His or CD3 epsilon-delta protein coated at 1 or 2 µg/mL; sample in 3% milk/PBS + Ca2+ and Mg2+, 1 h at room temperature
[2] = target: soluble human CD3 epsilon-delta heterodimer (Homo sapiens (Human).) (UniProt P07766); assay: as above
[3] = target: human P-cadherin, cell surface-expressed on NCI-H1650 adenocarcinoma cells (Homo sapiens (Human).) (UniProt P22223)
[4] = target: human P-cadherin-Fc (recombinant human P-cadherin ECD protein) (Homo sapiens (Human).) (UniProt P22223); assay: SPR; Biacore 3000 and T-200; P-cadherin or human CD3 protein immobilised on CM5 by amine coupling (~75–300 RU); DART injected in two-fold series 100 to 6.25 nM; TBS-P+ (10 mM Tris pH 7.4, 150 mM NaCl, 2 mM CaCl2, 0.1 mg/mL BSA, 0.05% P20); global 1:1 Langmuir fit
[5] = target: cynomolgus monkey P-cadherin extracellular domain (ECD) (Macaca fascicularis); assay: as above
[6] = target: soluble human CD3 epsilon-delta heterodimer (Homo sapiens (Human).) (UniProt P07766); assay: as above
[7] = target: cynomolgus monkey P-cadherin extracellular domain (ECD) (Macaca fascicularis); assay: KinExA; recombinant cynomolgus monkey P-cadherin; PBS pH 7.4 with MgCl2, CaCl2 and 1 mg/mL BSA; PMMA beads; 4 °C for 2 h
[8] = target: human P-cadherin expressed on the surface of CHO cells (Homo sapiens) (UniProt P22223); assay: KinExA; human P-cadherin expressed on the surface of CHO cells; PBS pH 7.4 with MgCl2, CaCl2 and 1 mg/mL BSA; 4 °C for 2 h
[9] = target: human P-cadherin, cell surface-expressed on NCI-H1650 adenocarcinoma cells (Homo sapiens (Human).) (UniProt P22223); assay: ELISA; cell binding ELISA on a confluent monolayer of NCI-H1650 cells; DART in 3% milk/PBS + Ca2+ and Mg2+, 1 h at room temperature; HRP-labelled secondary antibody

UniProt P07766, sequence (P07766 23-126, stated change not applied, chain 1 of 2): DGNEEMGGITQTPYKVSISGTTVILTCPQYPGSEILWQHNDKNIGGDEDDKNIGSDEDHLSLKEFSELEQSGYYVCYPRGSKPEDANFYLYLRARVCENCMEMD
UniProt P07766, sequence (P04234 22-105, stated change not applied, chain 2 of 2, further chain): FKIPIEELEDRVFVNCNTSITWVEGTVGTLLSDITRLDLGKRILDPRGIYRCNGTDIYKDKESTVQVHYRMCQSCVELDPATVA

EC50 [1]: 0.92 nM
EC50 [2]: 4.37 nM
Kd [4]: > 1 nM
Kd [5]: 0.521 nM
koff [5]: 0.000205 s⁻¹
kon [5]: 437000 M⁻¹ s⁻¹
Kd [6]: 11.5 nM
Kd [7]: 0.352 nM
Kd [8]: 0.176 nM
EC50 [9]: 0.593 nM
Substance: PF-06671008 (anti-P-cadherin LP-DART #153) (bispecific antibody)
redirected killing of DU145 cells by human PBMCs (LDH release, 24 h, E:T 30:1), EC50 [3]: 0.0031 nM
redirected killing of HCT-116 cells by human PBMCs (LDH release, 24 h, E:T 30:1), EC50 [3]: 0.123 nM
